Test results published in the Human Domainome abundance scans (Beltran et al. 2025).
± gives the uncertainty stated by the source.

Assay: abundance fitness (aPCA) (normalised: wild type 0, dead -1); higher = more abundant; growth selection in yeast, the domain comes from the species named
Conditions: Homo sapiens
In the case of “Homeobox expressed in ES cells 1 A114T, Q9UBX0”, the abundance fitness is reported as 0.493 ± 0.057.
In the case of “Homeobox expressed in ES cells 1 C131H, Q9UBX0”, the abundance fitness is reported as 0.419 ± 0.15.
For “Homeobox expressed in ES cells 1 D136F, Q9UBX0”, the abundance fitness was 0.211 ± 0.24.
“Homeobox expressed in ES cells 1 D140E, Q9UBX0” gave an abundance fitness of -0.047 ± 0.07.
“Homeobox expressed in ES cells 1 D150A, Q9UBX0” showed an abundance fitness of 0.089 ± 0.12.
In the case of “Homeobox expressed in ES cells 1 G134D, Q9UBX0”, the abundance fitness is reported as -0.02 ± 0.17.
Substance “Homeobox expressed in ES cells 1 I120L, Q9UBX0” has an abundance fitness of -0.192 ± 0.15.
In the case of “Homeobox expressed in ES cells 1 I135V, Q9UBX0”, the abundance fitness is reported as -0.069 ± 0.073.
With “Homeobox expressed in ES cells 1 I152V, Q9UBX0” the abundance fitness was -0.315 ± 0.12.
With “Homeobox expressed in ES cells 1 I154V, Q9UBX0” the abundance fitness was -0.028 ± 0.12.
For “Homeobox expressed in ES cells 1 K164W, Q9UBX0”, the abundance fitness was -0.547 ± 0.16.
Work on “Homeobox expressed in ES cells 1 N118Q, Q9UBX0” yielded an abundance fitness of -0.35 ± 0.35.
For “Homeobox expressed in ES cells 1 N125A, Q9UBX0”, the abundance fitness was -0.36 ± 0.12.
With “Homeobox expressed in ES cells 1 N130T, Q9UBX0” the abundance fitness was -0.144 ± 0.066.
In the case of “Homeobox expressed in ES cells 1 P111N, Q9UBX0”, the abundance fitness is reported as 0.704 ± 0.15.
“Homeobox expressed in ES cells 1 Q117L, Q9UBX0” gave an abundance fitness of -0.548 ± 0.16.
“Homeobox expressed in ES cells 1 Q143M, Q9UBX0” showed an abundance fitness of -0.011 ± 0.19.
Work on “Homeobox expressed in ES cells 1 R128A, Q9UBX0” yielded an abundance fitness of -0.277 ± 0.16.
“Homeobox expressed in ES cells 1 V122E, Q9UBX0” showed an abundance fitness of 0.12 ± 0.15.
“Homeobox expressed in ES cells 1 V129Q, Q9UBX0” gave an abundance fitness of 0.143 ± 0.25.
